Test results: publication PMC3525768

Target: T1, AgrAC (AgrA C-terminal LytTR domain) (Staphylococcus aureus, UniProt P0A0I7 137-238)
T1 sequence: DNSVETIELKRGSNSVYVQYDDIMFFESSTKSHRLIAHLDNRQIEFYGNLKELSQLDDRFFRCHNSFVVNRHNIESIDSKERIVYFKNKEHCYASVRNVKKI
Test: EMSA

B1: 19-bp AgrA target DNA duplex (dsDNA)
DNA 1: ATTTAACAGTTAAGTATTT
DNA 2: AAATACTTAACTGTTAAAT
- binding result: binds
